Measured values published in IntAct's records for PubMed 22612223.

Target: cdc37_human CDC37 (UniProt Q16543)
Sequence (Q16543 whole entry): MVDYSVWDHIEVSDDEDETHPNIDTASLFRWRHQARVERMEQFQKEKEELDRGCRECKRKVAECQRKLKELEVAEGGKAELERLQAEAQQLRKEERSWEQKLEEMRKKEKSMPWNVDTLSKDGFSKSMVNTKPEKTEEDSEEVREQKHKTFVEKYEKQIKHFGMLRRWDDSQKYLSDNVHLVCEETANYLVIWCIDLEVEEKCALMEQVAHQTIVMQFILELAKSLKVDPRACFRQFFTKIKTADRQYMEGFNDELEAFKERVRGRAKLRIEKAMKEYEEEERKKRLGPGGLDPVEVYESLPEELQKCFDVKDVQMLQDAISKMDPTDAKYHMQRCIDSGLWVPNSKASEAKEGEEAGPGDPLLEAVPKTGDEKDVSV

effect of a mutation on the interaction: increasing interaction
Substance: Leucine-rich repeat serine/threonine-protein kinase 2 (Homo sapiens), Q5S007 G2385R
